This is an account of results in paper PMC1561584.

The target in this test is LexA-UNC-119 (C. elegans) (UniProt Q10658). The test is described as follows: two-hybrid; LexA baits and GAD preys in strain L40; data not shown.
Chain of UniProt Q10658 (Q10658 whole entry): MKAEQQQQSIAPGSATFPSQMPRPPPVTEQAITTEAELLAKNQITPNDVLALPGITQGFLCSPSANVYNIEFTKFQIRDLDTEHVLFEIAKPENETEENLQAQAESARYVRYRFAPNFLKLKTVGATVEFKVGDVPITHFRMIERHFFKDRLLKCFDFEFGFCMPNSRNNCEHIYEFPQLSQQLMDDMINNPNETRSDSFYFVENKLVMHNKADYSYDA

As to ARL-3Δ17 (domain or fragment), the strength of interaction relative to ARL-3 FL (β-galactosidase activity) (fold of ARL-3 FL) is 0.2.
